The target of test [1] is T1, recombinant human Fibroblast Activation Protein (FAP) with N-terminus 6x histidine tag (human, UniProt Q12884 26-760).
T1 construct: Bought protein; also called rFAP; rhFAP
T1 sequence: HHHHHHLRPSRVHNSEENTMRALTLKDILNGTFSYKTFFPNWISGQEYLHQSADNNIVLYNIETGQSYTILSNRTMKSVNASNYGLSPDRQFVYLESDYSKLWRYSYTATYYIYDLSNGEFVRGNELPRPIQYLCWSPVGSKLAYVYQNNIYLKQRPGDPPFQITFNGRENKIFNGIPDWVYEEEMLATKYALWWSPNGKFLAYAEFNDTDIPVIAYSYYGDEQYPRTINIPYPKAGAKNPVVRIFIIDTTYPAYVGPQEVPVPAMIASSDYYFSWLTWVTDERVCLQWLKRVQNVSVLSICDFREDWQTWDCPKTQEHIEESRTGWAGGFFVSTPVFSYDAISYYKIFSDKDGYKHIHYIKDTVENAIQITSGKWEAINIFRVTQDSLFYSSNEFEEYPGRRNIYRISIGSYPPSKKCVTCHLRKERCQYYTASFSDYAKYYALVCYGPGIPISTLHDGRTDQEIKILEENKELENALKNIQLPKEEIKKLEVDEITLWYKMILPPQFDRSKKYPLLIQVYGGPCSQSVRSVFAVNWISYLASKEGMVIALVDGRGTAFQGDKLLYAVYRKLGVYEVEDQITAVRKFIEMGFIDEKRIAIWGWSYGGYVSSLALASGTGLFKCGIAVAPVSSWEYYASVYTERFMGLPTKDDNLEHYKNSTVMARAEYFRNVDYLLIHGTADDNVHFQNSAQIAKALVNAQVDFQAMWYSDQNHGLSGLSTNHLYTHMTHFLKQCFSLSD
Description: direct ELISA: rFAP coated directly on the plate, antibody titrated, OD 450 nm. For orientation: ELISA stands for enzyme-linked immunosorbent assay.

In test [2] the target is T2, recombinant human Dipeptidyl Peptidase 8 (DPP8) (human, UniProt Q6V1X1 1-898, limits assumed).
T2 construct: Bought active enzyme; also called rhDPP8; BPS Bioscience 80080
T2 sequence (Q6V1X1 whole entry): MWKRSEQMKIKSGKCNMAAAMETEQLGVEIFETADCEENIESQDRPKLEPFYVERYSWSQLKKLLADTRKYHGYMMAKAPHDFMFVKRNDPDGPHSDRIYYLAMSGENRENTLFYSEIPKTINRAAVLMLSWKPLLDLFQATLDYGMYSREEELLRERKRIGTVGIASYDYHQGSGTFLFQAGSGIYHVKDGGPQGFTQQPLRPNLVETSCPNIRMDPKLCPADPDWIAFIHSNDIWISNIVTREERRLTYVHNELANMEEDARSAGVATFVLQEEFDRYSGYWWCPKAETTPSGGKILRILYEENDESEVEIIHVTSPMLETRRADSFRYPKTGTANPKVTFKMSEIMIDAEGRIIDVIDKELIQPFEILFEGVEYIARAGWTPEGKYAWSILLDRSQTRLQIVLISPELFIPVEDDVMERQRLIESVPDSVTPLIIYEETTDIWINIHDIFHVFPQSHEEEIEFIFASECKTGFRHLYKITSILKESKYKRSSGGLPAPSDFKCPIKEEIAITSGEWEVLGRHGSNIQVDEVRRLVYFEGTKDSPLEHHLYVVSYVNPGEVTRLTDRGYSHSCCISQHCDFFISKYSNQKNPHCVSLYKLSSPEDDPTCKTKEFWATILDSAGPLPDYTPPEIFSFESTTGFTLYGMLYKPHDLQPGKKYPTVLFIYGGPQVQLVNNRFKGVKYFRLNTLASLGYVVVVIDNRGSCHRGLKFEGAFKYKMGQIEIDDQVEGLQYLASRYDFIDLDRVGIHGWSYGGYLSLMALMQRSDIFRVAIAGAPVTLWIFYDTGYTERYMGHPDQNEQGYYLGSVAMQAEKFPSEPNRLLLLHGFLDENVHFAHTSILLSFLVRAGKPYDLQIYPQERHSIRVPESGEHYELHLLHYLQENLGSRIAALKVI
Description: ELISA: enzyme held on the plate by an anti-tag antibody, HRP-labelled NI-206.82C2 titrated [continued) E]. The source says: Active recombinant human enzymes evaluated in this assay include: Fibroblast Activation Protein (FAP; Sino Biologicals, 10464-H07H), Dipeptidyl Peptidase IV (DPPIV, BPS Bioscience 80040), Dipeptidyl Peptidase 8 (DPP8, BPS Bioscience 80080), Dipeptidyl Peptidase 9 (DPP9, BPS Bioscience 80080), and Prolyl Oligopeptidase/Prolyl Endopeptidase (POP/PREP, BPS Bioscience 80105). Each recombinant peptidase was expressed with a purification tag, and attached to the 96 well ELISA plate using either a mouse anti-Histidine antibody (CloneTech), or a mouse anti-Glutathione S-transferase (GST, Sino Biologicals, 111213-MM02) tag antibody. […] H-Gly-Pro-AMC (ATT Bioquest, 13450) was used to validate the presence and activity of DPP4, DPP9, and DPP8. Z-Gly-Pro-AMC (BaChem, 11145) was used to evaluate the activity of FAP and POP/PREP. […] Following a washing step, bound antibody was detected using 3,3′,5,5′-Tetramethylbenzidine (TMB) substrate.

The results in this text go back to patent US20180022822A1 (MABIMMUNE DIAGNOSTICS, published 2018).

In general, EC50 refers to the midpoint of the concentration-response curve.

B1: NI-206.82C2 (antibody, V domains shown)
VH: QVQLQQSGPGLVKPSQTLSLTCAISGDSVSSNSVTWNWIRQSPSRGLEWLGRTYYRSKWYNDYAVSVKGRITINPDTSKNQFYLQLKSVTPEDAAVYYCARDSSILYGDYWGQGTLVTVSS
VL: QAVLTQPSSLSASPGASASLTCTLPSGINVGTYRIFWFQQKPGSPPQYLLSYKSDSDNHQGSGVPSRFSGSKDASANAGILLISGLQSEDEADYYCMIWHSSAWVFGGGTKLTVL
notes: Recombinantly expressed as complete human IgG1 with a lambda light chain; HRP-labelled in the homologue and sandwich ELISAs, Cy5-labelled in flow cytometry; also called HRP-labelled 82C2; Cy5 labelled 82C2
With B1, in test [1], the EC50 amounted to 0.608 nM. In addition, the binding result in test [2] is listed as “no binding”.
